Key:
[1] = tested on: chick embryonic spinal motorneurons; test: Survival of chick embryonic spinal motorneurons in culture; format: cell-based; parameters: key to Survival: −: not significantly different from control (survival: 8.3 ± 3.8%, mean ± SD, n = 18); ±: about 15-20% (statistically significant from each blank control, p < 0.01); + +: about 35-55%; + ++: about 55-75%
Procedure: Motorneuron columns were dissected under a stereomicroscope from the lumbar part of the spinal cord of chick embryos on the 6th day of embryonic development and stored in cold calcium and magnesium-free Hanks balanced salt solution supplemented with glucose (4 g/l) (HBSS). The tissues were washed with HBSS and treated with 0.03% trypsin in HBSS at 37° C. for 20 min with gentle shaking, rinsed with cold HBSS and triturated mildly in 3 steps of 8-passage agitation in 1 ml of cold 0.1% soybean trypsin inhibitor (Sigma) in HBSS through a fire-polished siliconized Pasteur pipette. Each supernatant cell suspension was filtered through 50 μm-Nylon mesh, pooled and layered onto 4 ml of cold 6.8% metrizamide (Fluka) in HBSS-25 mM HEPES (pH7.4) in a 12 ml-siliconized conical glass tube. The tube was centrifuged at 400 g for 15 min at 4° C. and the intermediate layer (0.5 ml) was collected into another siliconized tube containing 6.5 ml of cold culture medium (a mixture of glucose (4 g/l)-supplemented Leibovitz's L-15 medium (Gibco), 0.15 M sodium bicarbonate, heat-inactivated and filtered horse serum and penicillin G (10^5 units/ml) at the ratio of 75:15:10:0.1, freshly prepared and buffered with 5% CO2.) After centrifugation at 100×g for 7 min at 4° C., the supernatant was removed and the cells were gently resuspended in culture medium and plated in Greiner 4-well culture dishes (well diameter, 10 mm; C. A. Greiner und Sohne GmbH, Nurtingen, West Germany) at 1000-2000 cells/well. The dishes had been precoated with poly-DL-ornithine (Sigma, 0.5 mg in 0.15 M sodium borate buffer (pH 8.3) overnight at 4° C., rinsed twice with phosphate-buffered saline (PBS) and subsequently coated with laminin (Gibco; 10 μg/ml in the serum-depleted culture medium) and placed in a 5% CO2-incubator until cell plating (5-6 hrs). Cells were incubated at 37° C. in a humidified 5% CO2- and 95% air-incubator. Samples were added one hr after plating and the culture medium changed after 24 hrs and 72 hrs. The initial cell numbers were counted 3 hrs after plating.
In some experiments motor neurons were retrogradely labeled with a fluorescent dye in vivo before cell preparation (U. Dohrman et al., 1986, Dev. Biol. 118:209-221) to identify the motor neuron cell population. A small hole was made in the shell of eggs which had been incubated for 5 days. Small pieces of rhodamine isothiocyanate crystals (Sigma) were inserted at two or three places into each hind limb thigh and the egg hole was sealed with a cellophane tape. The eggs were incubated for another 24 hrs. Some of the operated embryos were then processed for frozen sections after formaldehyde fixation. […] The other embryos were used for cell preparation using the method described above (18.1.1). After 5 hrs in culture cells were rinsed with warm HBSS, fixed with 4% formaldehyde in PBS at room temperature for 20 min, rinsed with PBS and then mounted in glycerol-PBS (1:1) with glass coverslips. Of the total cells approximately 83% were labeled and identified as motorneurons (FIG. 42.) Most of these labeled motorneurons were large cells and the rest were intermediate-size cells. No small cells were labeled. On the other hand, in experiments in which cells were not labeled with a fluorescent dye about 70% of the total cells were large phase-bright cells with round cell somas, about 20% were intermediate-size neurons (most of them may be motorneurons) and about 10% were small immature neurons (they have neuron-like processes with growth cones but have phase-dark semi-flat cell somas). Non-neuronal cells were either not present or accounted for less than 2%. Taken together, one may conclude that at least 83% of the cells are motorneurons while the remainder consists of non-labeled motorneurons, a small number of unidentified intermediate-size neurons and about 10% immature small neurons. […]

[2] = tested on: GABAergic neurons (hippocampal cultures); test: Effect of other neurotrophic factors on GABAergic hippocampal neurons in culture; format: cell-based, rat
Procedure: Hippocampi were dissected from E18-19 rat embryos of Sprague-Dawley rats, and collected in F10 medium. The tissues were minced, rinsed twice with F10 medium (Gibco) and trypsinized with 0.25% trypsin (Gibco) for 20 minutes at 37° C. Trypsin was inactivated by the addition of a serum-containing medium composed of minimal essential medium (MEM) supplemented with fetal calf serum (FCS, 10%), glutamine (2 mM), penicillin (25 U/ml) and streptomycin (25 ug/ml). Dissociated cells obtained by gentle trituration were collected and centrifuged at low speed (500 rpm) for 30 seconds. The centrifugation was repeated twice, and the cell pellets were then resuspended in serum-containing medium. The cells were then plated onto 6 mm wells or 35 mm dishes that were coated with polyornithine (10 ug/ml) and laminin (10 ug/ml). In most of the experiments, the cells were plated at a low density of approximately 71,000 cells/cm^2. Five to six hours following the plating of cells, medium was changed to a serum-free medium containing 1% N3 and penicillin-streptomycin (25 units/ml and 25 ug/ml, respectively), at which time CNTF was added. Medium was changed every three to four days, with re-addition of the factor. […]

[3] = tested on: dorsal root ganglia and/or dissociated ciliary neurons; test: Biological activity of modified and truncated CNTF proteins (rapid bacterial extracts); format: cell-based, chick; details: soluble protein extracted from induced bacteria hosting each plasmid; compared with full length parental protein
Procedure: Samples for gel electrophoresis were prepared by resuspending cell pellets from 0.5 ml culture OD590=2 in 0.16 ml lysis buffer (100 mM TrisHCl, 10% glycerol, 4% sodium dodecyl sulfate, 1 mM dithiothreitol, 0.5 mg/ml bromophenol blue, pH 6.8) and boiling for 5 minutes.
(§1) Biological activity of recombinant CNTF was assayed on explants of chick embryo dorsal root ganglia (DRG) and dissociated cultures of ciliary ganglion (CG) neurons as described in Lindsay and Rohrer (1985, Devel. Biol 112:30-48). Briefly, DRG were dissected from chick embryos of 10 days incubation (E10) and 5-6 ganglia were explanted in 1 ml of a collagen gel matrix in 35 mm tissue culture dishes. After the gel had set, 1 ml of tissue culture growth medium F14 (Imperial Labs., U.K.) supplemented with 5% heat-inactivated horse serum (GIBCO) was added before adding human CNTF (1-20 l) to a final concentration of 100 pg to 100 ng/ml. CG were dissected from E8 chick embryos and incubated for 30 min in 0.25% trypsin (Worthington) in calcium- and magnesium-free phosphate buffered saline. The ganglia were then washed three times in F14 medium containing 5% horse serum before being dissociated to a single cell suspension by trituration through the bore of a Pasteur pipette. Enrichment for CG neurons was achieved by plating the cell suspension for 3.5 hr in a 60 mm dish, during which non-neuronal cells (fibroblasts and Schwann cells) attached firmly to the plastic while phase-bright neurons remained in suspension. The purified neurons were plated on polyornithine-laminin-coated 35 mm culture dishes at 8,000-10,000 neurons/dish. In explant cultures CNTF activity was determined by assessing the extent of fiber outgrowth in treated cultures compared to controls. Fiber outgrowth was scored on a scale of 0 to 5+, by comparing cultures to photographs of a dose-response of explanted DRG and NGF. In dissociated CG neuron cultures, CNTF activity was determined by counting at 48 hr the percentage of process-bearing neurons in control and CNTF-treated cultures. In all cases results were derived from triplicate cultures.
Biological activity was assayed on dorsal root ganglia and/or dissociated ciliary neurons was determined as described in section 12.1.6. Soluble protein was extracted from induced bacteria hosting each plasmid by the “rapid” protein extraction method described in section 12.1.3.

[4] = tested on: E10 rat ciliary ganglion neurons; test: Survival and neurite outgrowth of ciliary ganglion neurons with E. coli protein extract; format: cell-based
Procedure: (§2) In addition, protein extracts were prepared from the same cells lysed by treatment with lysozyme followed by three cycles of freezing and thawing. […] No such activity could be detected in control extracts from the same host cells carrying the plasmid vector without the rCNTF gene.

[5] = tested on: E8 dorsal root ganglion neurons; test: Survival and neurite outgrowth of dorsal root ganglion neurons / DRG assay with E. coli protein extracts; format: cell-based; details: protein extract of E. coli W3110iqF-/rCNTF-C-1; after 24 and 48 hours in vitro
Procedure: as §2
Human CNTF sequence, engineered to lack intron sequences, has been inserted into the pCP93 vector and used to transform competent E. coli.

[6] = tested on: E8 chick ciliary ganglion neurons; test: Survival of dissociated E8 chick ciliary ganglion neurons; format: cell-based; details: dissociated, neuron-enriched E8 chick ciliary ganglion cultures
From the text: Ciliary neurotrophic factor activity may be evaluated using any CNTF-sensitive in vivo or in vitro system known in the art. For example, and not by way of limitation, in vitro systems have been developed which measure CNTF activity by quantitating 24-hour survival of embryonic (E8) chick ciliary ganglion (CG) neurons in monolayer cultures.
For example, ciliary ganglia may be collected from E8 chick embryos, dissociated (yielding approximately 20,000 cells per ganglion) and then diluted in HEBM medium containing 20 percent horse serum as described in Varon et al. (1979, Brain Res. 173:29-45). About fifty microliters of cell suspension containing neurons (2,000 cells) may then be seeded into microliter dishes and putative CNTF activity may be added. Culture plates may then be maintained at 37° C. in 5% CO2 for 24 hours, after which the cultures may be fixed by the addition of 200 μl 2 per cent glutaraldehyde in HEBM medium, and the number of surviving neurons may be determined visually by direct count under phase contrast microscopy.
Chick embryo ciliary ganglion cultures were created and maintained according to the method set forth in (Hughes et al., 1988, Nature 335 : 70-73).
as §1

B1: BDNF: brain derived neurotrophic factor (porcine in Table VI) (protein, UniProt P14082 134-252, looked up)
Neurotrophic factor BDNF: HSDPARRGELSVCDSISEWVTAADKKTAVDMSGGTVTVLEKVPVSKGQLKQYFYETKCNPMGYTKEGCRGIDKRHWNSQCRTTQSYVRALTMDSKKRIGWRFIRIDTSCVCTLTIKRGR
modifications: Neurotrophic factor BDNF
B1 was tested. Which Survival ([1]; after 3 days in culture, one concentration per molecule, Table VI, CNTF rat, rec.) did it give?
The Survival was “−”.

What about the “survival effect on motoneurons” value ([1]; supramaximal concentrations, NT-3 produced by transfected Cos-cells) of the same molecule?
Its value is “no discernable effect”.

And the “effect on / survival of GABAergic neurons” value [2]?
Its value is “does not seem to promote the survival”.

B2: pRPN59: hCNTF interrupted after the 185th codon, followed by 10 additional unrelated amino acids (protein, UniProt P26441 1-185, looked up, fragment)
chain: MAFTEHSPLTPHRRDLCSRSIWLARKIRSDLTALTESYVKHQGLNKNINLDSADGMPVASTDQWSELTEAERLQENLQAYRTFHVLLARLLEDQQVHFTPTEGDFHQAIHTLLLQVAAFAYQIEELMILLEYKIPRNEADGMPINVGDGGLFEKKLWGLKVLQELSQWTVRSIHDLRFISSHQTG
modifications: plus 10 unrelated C-terminal residues
Which biological activity [3] does the source give for B2 here?
Its biological activity is “as active as the full length protein”.

B3: pRPN109: hCNTF with serine in place of cysteine at amino acid 17, encoded in plasmid pRPN109 (protein, UniProt P26441 1-200, looked up, variant C17S)
Ciliary neurotrophic factor: MAFTEHSPLTPHRRDLSSRSIWLARKIRSDLTALTESYVKHQGLNKNINLDSADGMPVASTDQWSELTEAERLQENLQAYRTFHVLLARLLEDQQVHFTPTEGDFHQAIHTLLLQVAAFAYQIEELMILLEYKIPRNEADGMPINVGDGGLFEKKLWGLKVLQELSQWTVRSIHDLRFISSHQTGIPARGSHYIANNKKM
How did the biological activity [3] turn out when B3 was run?
Its biological activity is “as active as the full length protein”.

B4: recombinant rat CNTF: rat ciliary neurotrophic factor expressed in E. coli (protein, UniProt P20294 1-200, looked up)
Ciliary neurotrophic factor: MAFAEQTPLTLHRRDLCSRSIWLARKIRSDLTALMESYVKHQGLNKNINLDSVDGVPVASTDRWSEMTEAERLQENLQAYRTFQGMLTKLLEDQRVHFTPTEGDFHQAIHTLMLQVSAFAYQLEELMVLLEQKIPENEADGMPATVGDGGLFEKKLWGLKVLQELSQWTVRSIHDLRVISSHQMGISALESHYGAKDKQM
What does the source list for B4?
amount of rCNTF at which maximal activity was seen ([4]; ciliary and dorsal root ganglion neuron cultures): less than 1 nanogram; survival and neurite outgrowth of E10 rat ciliary ganglion neurons ([4]; protein extract of E. coli W3110iqF-/rCNTF-C-1, after 24 and 48 hours in vitro): up to 50%; motorneurons alive after 3 days in culture ([1]; recombinant rat CNTF, 5 ng/ml): about 70%; motorneurons alive after 6 days in culture ([1]; recombinant rat CNTF, 5 ng/ml): about 60%; survival and neurite outgrowth of E8 dorsal root ganglion neurons [5]: approximately 30%; lowest concentration at which activity was detectable [6]: 2 pg/mL

B5: pRPN112: hCNTF interrupted after the 145th codon plus one leucine; lacks 55 carboxyl-terminal residues (protein, UniProt P26441 1-145, looked up, fragment)
chain: MAFTEHSPLTPHRRDLCSRSIWLARKIRSDLTALTESYVKHQGLNKNINLDSADGMPVASTDQWSELTEAERLQENLQAYRTFHVLLARLLEDQQVHFTPTEGDFHQAIHTLLLQVAAFAYQIEELMILLEYKIPRNEADGMPIN
modifications: plus one C-terminal leucine
notes: hCNTF interrupted after the 145th codon plus one leucine; lacks 55 carboxyl-terminal residues
B5 was tested. Which biological activity [3] did it give?
The biological activity was “inactive”.

B6: pRPN65: rCNTF terminated immediately after the 165th codon (protein, UniProt P20294 1-165, looked up, fragment)
chain: MAFAEQTPLTLHRRDLCSRSIWLARKIRSDLTALMESYVKHQGLNKNINLDSVDGVPVASTDRWSEMTEAERLQENLQAYRTFQGMLTKLLEDQRVHFTPTEGDFHQAIHTLMLQVSAFAYQLEELMVLLEQKIPENEADGMPATVGDGGLFEKKLWGLKVLQEL
How did the biological activity [3] turn out when B6 was run?
Its biological activity is “inactivated”.

Source: patent US6602687B1, “DNA encoding human ciliary neurotrophic factor and method for producing the protein encoded thereby” (Regeneron Pharmaceuticals, Inc., priority 1989, dated 2003)
